The values that follow come from patent US20220168396A1, “MULTI-RECEPTOR AGONIST AND MEDICAL USE THEREOF” (published 2022).

Where two headings read alike, the source gives them in different places. Numbered stars: 1 amine (or outer) side, 2 acyl side, 3 side chain; on linkers, the order of the positions; unused ones are H or OH. Square brackets hold non-standard residues; d marks the D form. Side chains are listed from the residue outwards. Ends that are not written are not given here. γGlu = O=C(O)[C@H](CCC(=O)[*:2])N[*:1]; AEEA = NCCOCCOCC(=O)O; Aib = CC(C)(N)C(=O)O

Assay in all cases: cell-based or functional assay
The target of test [1] is T1, human glucose-dependent insulinotropic peptide receptor (human, UniProt P48546).
T1 sequence: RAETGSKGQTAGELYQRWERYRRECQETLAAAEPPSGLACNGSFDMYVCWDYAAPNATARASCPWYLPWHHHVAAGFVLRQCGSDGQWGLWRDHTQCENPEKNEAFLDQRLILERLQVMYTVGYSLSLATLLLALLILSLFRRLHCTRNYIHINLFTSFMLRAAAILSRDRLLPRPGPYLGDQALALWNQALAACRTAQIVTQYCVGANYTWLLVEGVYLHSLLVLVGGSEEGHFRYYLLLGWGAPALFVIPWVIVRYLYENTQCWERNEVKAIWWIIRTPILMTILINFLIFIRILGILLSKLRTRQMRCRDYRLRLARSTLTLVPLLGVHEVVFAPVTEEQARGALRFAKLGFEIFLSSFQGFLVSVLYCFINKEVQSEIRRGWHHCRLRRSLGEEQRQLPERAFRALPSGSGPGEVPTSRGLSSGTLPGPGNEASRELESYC

For test [2], the target named is T2, human glucagon-like peptide-1 receptor (human, UniProt P43220).
Test [3] deals with T1, human glucose-dependent insulinotropic …. The source holds these as a separate data set.
The target in test [4] is T2, human glucagon-like peptide-1 receptor. This is another data set of the same source.

B1: Compound No. 2 (peptide)
peptide: Y[Aib]EGTFTSDVSSYLEEEAAKEFIAWLVRGGPSSGAPPPSK-NH2
modifications: N-terminus assumed
SMILES: CC[C@H](C)[C@H](NC(=O)[C@H](Cc1ccccc1)NC(=O)[C@H](CCC(=O)O)NC(=O)[C@H](CCCCN)NC(=O)[C@H](C)NC(=O)[C@H](C)NC(=O)[C@H](CCC(=O)O)NC(=O)[C@H](CCC(=O)O)NC(=O)[C@H](CCC(=O)O)NC(=O)[C@H](CC(C)C)NC(=O)[C@H](Cc1ccc(O)cc1)NC(=O)[C@H](CO)NC(=O)[C@H](CO)NC(=O)[C@@H](NC(=O)[C@H](CC(=O)O)NC(=O)[C@H](CO)NC(=O)[C@@H](NC(=O)[C@H](Cc1ccccc1)NC(=O)[C@@H](NC(=O)CNC(=O)[C@H](CCC(=O)O)NC(=O)C(C)(C)NC(=O)[C@@H](N)Cc1ccc(O)cc1)[C@@H](C)O)[C@@H](C)O)C(C)C)C(=O)N[C@@H](C)C(=O)N[C@@H](Cc1c[nH]c2ccccc12)C(=O)N[C@@H](CC(C)C)C(=O)N[C@H](C(=O)N[C@@H](CCCNC(=N)N)C(=O)NCC(=O)NCC(=O)N1CCC[C@H]1C(=O)N[C@@H](CO)C(=O)N[C@@H](CO)C(=O)NCC(=O)N[C@@H](C)C(=O)N1CCC[C@H]1C(=O)N1CCC[C@H]1C(=O)N1CCC[C@H]1C(=O)N[C@@H](CO)C(=O)N[C@@H](CCCCN)C(N)=O)C(C)C
Regarding B1, the “Activity for human GIPR (EC50 nM), cAMP HTRF” value (from here on “Activity for human GIPR”) in test [1] amounted to 3.5 nM. Also, the “Activity for human GLP-1R (EC50 nM), cAMP HTRF” value (“Activity for human GLP-1R” below) in test [2] amounted to 0.017 nM.

B2: Compound No. 78 (peptide)
peptide: Y[Aib]EGTFTSDYSIYLEKIAAQEFVQWLLAGGPSSGAPPPS-NH2
modifications: N-terminus assumed
SMILES: CC[C@H](C)[C@H](NC(=O)[C@H](CCCCN)NC(=O)[C@H](CCC(=O)O)NC(=O)[C@H](CC(C)C)NC(=O)[C@H](Cc1ccc(O)cc1)NC(=O)[C@@H](NC(=O)[C@H](CO)NC(=O)[C@H](Cc1ccc(O)cc1)NC(=O)[C@H](CC(=O)O)NC(=O)[C@H](CO)NC(=O)[C@@H](NC(=O)[C@H](Cc1ccccc1)NC(=O)[C@@H](NC(=O)CNC(=O)[C@H](CCC(=O)O)NC(=O)C(C)(C)NC(=O)[C@@H](N)Cc1ccc(O)cc1)[C@@H](C)O)[C@@H](C)O)[C@@H](C)CC)C(=O)N[C@@H](C)C(=O)N[C@@H](C)C(=O)N[C@@H](CCC(N)=O)C(=O)N[C@@H](CCC(=O)O)C(=O)N[C@@H](Cc1ccccc1)C(=O)N[C@H](C(=O)N[C@@H](CCC(N)=O)C(=O)N[C@@H](Cc1c[nH]c2ccccc12)C(=O)N[C@@H](CC(C)C)C(=O)N[C@@H](CC(C)C)C(=O)N[C@@H](C)C(=O)NCC(=O)NCC(=O)N1CCC[C@H]1C(=O)N[C@@H](CO)C(=O)N[C@@H](CO)C(=O)NCC(=O)N[C@@H](C)C(=O)N1CCC[C@H]1C(=O)N1CCC[C@H]1C(=O)N1CCC[C@H]1C(=O)N[C@@H](CO)C(N)=O)C(C)C
B2: the “Activity for human GIPR” value in test [1] was 0.012 nM. Moreover, in test [2], the “Activity for human GLP-1R” value was 0.008 nM.

B3: Compound No. 72 (peptide)
peptide: Y[Aib]EGTFTSDYSIYLEEIAAKEFVNWLLAGGPSSGAPPPS-NH2
modifications: N-terminus assumed
SMILES: CC[C@H](C)[C@H](NC(=O)[C@H](CCC(=O)O)NC(=O)[C@H](CCC(=O)O)NC(=O)[C@H](CC(C)C)NC(=O)[C@H](Cc1ccc(O)cc1)NC(=O)[C@@H](NC(=O)[C@H](CO)NC(=O)[C@H](Cc1ccc(O)cc1)NC(=O)[C@H](CC(=O)O)NC(=O)[C@H](CO)NC(=O)[C@@H](NC(=O)[C@H](Cc1ccccc1)NC(=O)[C@@H](NC(=O)CNC(=O)[C@H](CCC(=O)O)NC(=O)C(C)(C)NC(=O)[C@@H](N)Cc1ccc(O)cc1)[C@@H](C)O)[C@@H](C)O)[C@@H](C)CC)C(=O)N[C@@H](C)C(=O)N[C@@H](C)C(=O)N[C@@H](CCCCN)C(=O)N[C@@H](CCC(=O)O)C(=O)N[C@@H](Cc1ccccc1)C(=O)N[C@H](C(=O)N[C@@H](CC(N)=O)C(=O)N[C@@H](Cc1c[nH]c2ccccc12)C(=O)N[C@@H](CC(C)C)C(=O)N[C@@H](CC(C)C)C(=O)N[C@@H](C)C(=O)NCC(=O)NCC(=O)N1CCC[C@H]1C(=O)N[C@@H](CO)C(=O)N[C@@H](CO)C(=O)NCC(=O)N[C@@H](C)C(=O)N1CCC[C@H]1C(=O)N1CCC[C@H]1C(=O)N1CCC[C@H]1C(=O)N[C@@H](CO)C(N)=O)C(C)C
B3: the “Activity for human GIPR” value in test [1] was 0.03 nM. Further, in test [2], the “Activity for human GLP-1R” value was 0.017 nM.

B4: Compound No. 80 (peptide)
peptide: Y[Aib]EGTFTSDYSIYLEKIAAQEFVNWLIAGGPSSGAPPPS-NH2
modifications: N-terminus assumed
SMILES: CC[C@H](C)[C@H](NC(=O)[C@H](CCCCN)NC(=O)[C@H](CCC(=O)O)NC(=O)[C@H](CC(C)C)NC(=O)[C@H](Cc1ccc(O)cc1)NC(=O)[C@@H](NC(=O)[C@H](CO)NC(=O)[C@H](Cc1ccc(O)cc1)NC(=O)[C@H](CC(=O)O)NC(=O)[C@H](CO)NC(=O)[C@@H](NC(=O)[C@H](Cc1ccccc1)NC(=O)[C@@H](NC(=O)CNC(=O)[C@H](CCC(=O)O)NC(=O)C(C)(C)NC(=O)[C@@H](N)Cc1ccc(O)cc1)[C@@H](C)O)[C@@H](C)O)[C@@H](C)CC)C(=O)N[C@@H](C)C(=O)N[C@@H](C)C(=O)N[C@@H](CCC(N)=O)C(=O)N[C@@H](CCC(=O)O)C(=O)N[C@@H](Cc1ccccc1)C(=O)N[C@H](C(=O)N[C@@H](CC(N)=O)C(=O)N[C@@H](Cc1c[nH]c2ccccc12)C(=O)N[C@@H](CC(C)C)C(=O)N[C@H](C(=O)N[C@@H](C)C(=O)NCC(=O)NCC(=O)N1CCC[C@H]1C(=O)N[C@@H](CO)C(=O)N[C@@H](CO)C(=O)NCC(=O)N[C@@H](C)C(=O)N1CCC[C@H]1C(=O)N1CCC[C@H]1C(=O)N1CCC[C@H]1C(=O)N[C@@H](CO)C(N)=O)[C@@H](C)CC)C(C)C
For the molecule B4, the “Activity for human GIPR” value in test [1] came to 0.008 nM. Also, the “Activity for human GLP-1R” value in test [2] turned out to be 0.008 nM.

B5: Compound No. 71 (peptide)
peptide: Y[Aib]EGTFTSDYSIYLEEEAAKEFVNWLLAGGPSSGAPPPS-NH2
modifications: N-terminus assumed
SMILES: CC[C@H](C)[C@H](NC(=O)[C@H](CO)NC(=O)[C@H](Cc1ccc(O)cc1)NC(=O)[C@H](CC(=O)O)NC(=O)[C@H](CO)NC(=O)[C@@H](NC(=O)[C@H](Cc1ccccc1)NC(=O)[C@@H](NC(=O)CNC(=O)[C@H](CCC(=O)O)NC(=O)C(C)(C)NC(=O)[C@@H](N)Cc1ccc(O)cc1)[C@@H](C)O)[C@@H](C)O)C(=O)N[C@@H](Cc1ccc(O)cc1)C(=O)N[C@@H](CC(C)C)C(=O)N[C@@H](CCC(=O)O)C(=O)N[C@@H](CCC(=O)O)C(=O)N[C@@H](CCC(=O)O)C(=O)N[C@@H](C)C(=O)N[C@@H](C)C(=O)N[C@@H](CCCCN)C(=O)N[C@@H](CCC(=O)O)C(=O)N[C@@H](Cc1ccccc1)C(=O)N[C@H](C(=O)N[C@@H](CC(N)=O)C(=O)N[C@@H](Cc1c[nH]c2ccccc12)C(=O)N[C@@H](CC(C)C)C(=O)N[C@@H](CC(C)C)C(=O)N[C@@H](C)C(=O)NCC(=O)NCC(=O)N1CCC[C@H]1C(=O)N[C@@H](CO)C(=O)N[C@@H](CO)C(=O)NCC(=O)N[C@@H](C)C(=O)N1CCC[C@H]1C(=O)N1CCC[C@H]1C(=O)N1CCC[C@H]1C(=O)N[C@@H](CO)C(N)=O)C(C)C
Regarding B5, the “Activity for human GIPR” value in test [1] amounted to 0.042 nM. Moreover, the “Activity for human GLP-1R” value in test [2] turned out to be 0.017 nM.
Take Y[Aib]EGTFTSDYSIYLEKIAAQEFVNWLIAGGPSSGAPPPSK([AEEA-AEEA-γGlu-C20‑OH])-NH2 [Compound No. 83]: the “Activity for human GIPR” value in test [3] was 0.032 nM. In test [4], the “Activity for human GLP-1R” value came out at 0.028 nM.
